Experimental data published in the supplement of paper PMC11780869.

Test system: Bacillus subtilis
Assay: cleaved RNA product abundance (RNA/gDNA barcode ratio) relative to median wild-type variant (ratio to wild type); higher = more accumulation of the downstream cleavage product
Settings: cleavage site: cggR-gapA (positions -7 to +36 mutated)
Protocol: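 MPRA in B. subtilis. Mutagenized RNase Y cleavage-site regions (9% mutation rate) were inserted into a barcoded reporter mRNA (truncated aprE or tetM). Cells were grown in LB at 37°C to OD600 0.3. The cleaved RNA isoform was gel-purified and its barcodes counted; the RNA:gDNA barcode ratio was normalised to the median wild-type variant, and the median over barcodes is reported per variant. The printed sequence is the variable window only; the reporter flanks are not printed.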

[1] = experiment (reporter, strain, medium): exp 6: tetM reporter, strain 168
[2] = experiment (reporter, strain, medium): exp 4a: truncated aprE reporter, strain BJT201 with 2% xylose (RNase J1 expressed)
[3] = experiment (reporter, strain, medium): exp 2b: truncated aprE reporter, strain BJT200

Sequence | cleaved RNA product abundance [1] | cleaved RNA product abundance [2] | cleaved RNA product abundance [3]
ACAGACGAAGGAGACGCAAAGAAGTTATTAAGGGATGAATAATCCCTCAATATAAATATCTCTCACTTATTTAAA | 1.03 | – | –
ACAGACGAAGGAGCCACAAAGAAGTTATTAAAGGATGAATAATCCCTCAATATAAATATCTCTCACTTATTTAAA | 0.254 | – | –
ACAGACGAAGGAGCCACAAAGAAGTTATTAAGGGATGAATAATCCCTCAATATAAATATCTCTCACTTATTTAAA | 1.09 | – | –
ACAGACGAAGGAGCCCCAAAGAAGTTATTAAGGGATGAATAATCCCTCAATATAAATATCTCTCACTTATTTAAA | 1.36 | – | –
ACAGACGAAGGAGCCGAAAAGAAGTTATTAAGGGATGAATAATCCCTCAATATAAATATCTCTCACTTATTTAAA | 0.794 | – | –
ACAGACGAAGGAGCCGAATAGAAGTTATTAAGGGATGAATAATCCCTCAATATAAATATCTCTCACTTATTTAAA | 0.727 | – | –
ACAGACGAAGGAGCCGCAAAAAAATTATAAAGGGATGAATAATCCCTCAATATAAATATCTCTCACTTATTTAAA | – | 0.268 | –
ACAGACGAAGGAGCCGCAAAAAAATTATTAAGGGATGAATAATCCCTCAATATAAATATCTCTCACTTATTTAAA | – | 1.04 | 1.1
ACAGACGAAGGAGCCGCAAAAAAATTATTAAGGGATGAATAATCCCTCATTATAAATATCTCTCACTTATTTAAA | – | 0.267 | –
ACAGACGAAGGAGCCGCAAAAAACTTATTAAGGGATGAATAATCCCTCAATATAAATATCTCTCACTTATTTAAA | – | 0.479 | –
ACAGACGAAGGAGCCGCAAAAAACTTATTAAGGGATGATTAATCCCTCAATATAAATATCTCTCACTTATTTAAA | – | – | 0.325
ACAGACGAAGGAGCCGCAAAAAAGATATTAAGGGATGAATAATCCCTCAATATAAATATCTCTCACTTATTTAAA | 0.421 | 0.913 | –
ACAGACGAAGGAGCCGCAAAAAAGCTATTAAGGGATGAATAATCCCTCAATATAAATATCTCTCACTTATTTAAA | – | 0.855 | 0.392
ACAGACGAAGGAGCCGCAAAAAAGGTATTAAGGGATGAATAATCCCTCAATATAAATATCTCTCACTTATTTAAA | – | 0.879 | 1.78
ACAGACGAAGGAGCCGCAAAAAAGTAATTAAGGGATGAATAATCCCTCAATATAAATATCTCTCACTTATTTAAA | – | 0.342 | 0.304
ACAGACGAAGGAGCCGCAAAAAAGTCATTAAGGGATGAATAATCCCTCAATATAAATATCTCTCACTTATTTAAA | – | 0.37 | –
ACAGACGAAGGAGCCGCAAAAAAGTGATTAAGGGATGAATAATCCCTCAATATAAATATCTCTCACTTATTTAAA | – | 0.583 | 0.276
ACAGACGAAGGAGCCGCAAAAAAGTTAATAAGGGATGAATAATCCCTCAATATAAATATCTCTCACTTATTTAAA | – | 0.365 | 0.335
ACAGACGAAGGAGCCGCAAAAAAGTTAATAAGGGATGAATATTCCCTCAATATAAATATCTCTCACTTATTTAAA | – | 0.21 | –
ACAGACGAAGGAGCCGCAAAAAAGTTACTAAGGGATGAATAATCCCTCAATATAAATATCTCTCACTTATTTAAA | – | – | 0.222
ACAGACGAAGGAGCCGCAAAAAAGTTAGTAAGGGATGAATAATCCCTCAATATAAATATCTCTCACTTATTTAAA | – | 0.374 | –
ACAGACGAAGGAGCCGCAAAAAAGTTATAAAGAGATGAATAATCCCTCAATATAAATATCTCTCACTTATTTAAA | – | – | 0.14
ACAGACGAAGGAGCCGCAAAAAAGTTATAAAGGGATGAATAATCCCTCAATATAAATATCTCTCACTTATTTAAA | – | 0.581 | 0.4
